B1: Pheromone alpha factor receptor (Saccharomyces cerevisiae (Baker's yeast)), P0CI39 (parent)
chain: MSDAAPSLSNLFYDPTYNPGQSTINYTSIYGNGSTITFDELQGLVNSTVTQAIMFGVRCGAAALTLIVMWMTSRSRKTPIFIINQVSLFLIILHSALYFKYLLSNYSSVTYALTGFPQFISRGDVHVYGATNIIQVLLVASIETSLVFQIKVIFTGDNFKRIGLMLTSISFTLGIATVTMYFVSAVKGMIVTYNDVSATQDKYFNASTILLASSINFMSFVLVVKLILAIRSRRFLGLKQFDSFHILLIMSCQSLLVPSIIFILAYSLKPNQGTDVLTTVATLLAVLSLPLSSMWATAANNASKTNTITSDFTTSTDRFYPGTLSSFQTDSINNDAKSSLRSRLYDLYPRRKETTSDKHSERTFVSETADDIEKNQFYQLPTPTSSKNTRIGPFADASYKEGEVEPVDMYTPDTAADEEARKFWTEDNNNL
partner: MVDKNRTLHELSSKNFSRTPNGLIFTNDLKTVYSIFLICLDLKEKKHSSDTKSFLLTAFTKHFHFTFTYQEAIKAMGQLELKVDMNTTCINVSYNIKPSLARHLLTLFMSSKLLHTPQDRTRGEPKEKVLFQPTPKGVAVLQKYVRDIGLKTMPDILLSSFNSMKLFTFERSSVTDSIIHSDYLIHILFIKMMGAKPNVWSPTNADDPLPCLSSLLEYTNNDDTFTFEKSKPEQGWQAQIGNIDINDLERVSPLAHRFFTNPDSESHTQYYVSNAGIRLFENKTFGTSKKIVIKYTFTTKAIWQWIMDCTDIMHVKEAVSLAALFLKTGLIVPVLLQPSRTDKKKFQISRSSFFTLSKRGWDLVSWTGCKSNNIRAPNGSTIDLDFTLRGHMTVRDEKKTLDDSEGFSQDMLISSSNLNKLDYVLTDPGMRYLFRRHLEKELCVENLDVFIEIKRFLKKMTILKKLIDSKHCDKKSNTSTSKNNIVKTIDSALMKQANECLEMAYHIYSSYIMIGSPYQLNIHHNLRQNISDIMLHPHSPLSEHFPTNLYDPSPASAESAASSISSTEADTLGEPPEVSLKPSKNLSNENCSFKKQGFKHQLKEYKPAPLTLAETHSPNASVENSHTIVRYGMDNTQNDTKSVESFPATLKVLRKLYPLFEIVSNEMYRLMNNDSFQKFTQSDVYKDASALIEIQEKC
B2: Protein SST2 (Saccharomyces cerevisiae), P11972 (parent)
chain: B1 partner
partner: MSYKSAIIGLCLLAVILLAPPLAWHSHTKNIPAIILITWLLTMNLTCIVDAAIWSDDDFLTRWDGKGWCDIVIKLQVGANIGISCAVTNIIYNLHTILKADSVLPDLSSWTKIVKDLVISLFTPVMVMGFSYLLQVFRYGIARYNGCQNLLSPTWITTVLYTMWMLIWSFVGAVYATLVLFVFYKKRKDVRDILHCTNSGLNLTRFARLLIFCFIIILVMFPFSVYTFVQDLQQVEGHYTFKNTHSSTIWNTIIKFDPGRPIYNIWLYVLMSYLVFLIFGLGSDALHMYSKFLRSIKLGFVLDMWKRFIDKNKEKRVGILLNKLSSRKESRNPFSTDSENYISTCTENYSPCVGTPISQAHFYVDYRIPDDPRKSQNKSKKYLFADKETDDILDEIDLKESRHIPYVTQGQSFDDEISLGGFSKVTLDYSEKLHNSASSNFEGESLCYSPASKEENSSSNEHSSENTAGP
B3: Protein SST2 (Saccharomyces cerevisiae), P11972 (parent)
chain: B1 partner
partner: B1 chain
B4: Pheromone a factor receptor (Saccharomyces cerevisiae), P06783 (parent)
chain: B2 partner
partner: B1 partner

Variants of: B1
Conditions: with sst2_yeast SST2, P11972

| Variant | effect of a mutation on the interaction |
| --- | --- |
| MSDAAPSLSNLFYDPTYNPGQSTINYTSIYGNGSTITFDELQGLVNSTVTQAIMFGVRCGAAALTLIVMWMTSRSRKTPIFIINQVSLFLIILHSALYFKYLLSNYSSVTYALTGFPQFISRGDVHVYGATNIIQVLLVASIETSLVFQIKVIFTGDNFKRIGLMLTSISFTLGIATVTMYFVSAVKGMIVTYNDVSATQDKYFNASTILLASSINFMSFVLVVKLILAIRSRRFLGLKQFDSFHILLIMSCQSLLVPSIIFILAYSLKPNQGTDVLTTVATLLAVLSLPLSSMWATAANNASKTNTITSDFTTSTDRFYPGTLSSFQTDSINNDARSSLRSRLYDLYPRRRETTSDRHSERTFVSETADDIERNQFYQLPTPTSSRNTRIGPFADASYREGEVEPVDMYTPDTAADEEARRFWTEDNNNL [K337R;K352R;K358R;K374R;K387R;K400R;K422R] | increasing interaction |

Variants of: B2
Conditions: with ste3_yeast STE3, P06783

| Variant | effect of a mutation on the interaction |
| --- | --- |
| Q304N | disrupting interaction |

Variants of: B3
Conditions: with ste2_yeasx STE2, P0CI39

| Variant | effect of a mutation on the interaction |
| --- | --- |
| Q304L | disrupting interaction |
| Q304E | disrupting interaction |

Variants of: B3
Conditions: with ste2_yeasx STE2, P0CI39
Remark: another data set of the same source

| Variant | effect of a mutation on the interaction |
| --- | --- |
| Q304N | disrupting interaction |

Variants of: B4
Conditions: with sst2_yeast SST2, P11972

| Variant | effect of a mutation on the interaction |
| --- | --- |
| MSYKSAIIGLCLLAVILLAPPLAWHSHTKNIPAIILITWLLTMNLTCIVDAAIWSDDDFLTRWDGKGWCDIVIKLQVGANIGISCAVTNIIYNLHTILKADSVLPDLSSWTKIVKDLVISLFTPVMVMGFSYLLQVFRYGIARYNGCQNLLSPTWITTVLYTMWMLIWSFVGAVYATLVLFVFYKKRKDVRDILHCTNSGLNLTRFARLLIFCFIIILVMFPFSVYTFVQDLQQVEGHYTFKNTHSSTIWNTIIKFDPGRPIYNIWLYVLMSYLVFLIFGLGSDALHMYSKFLRSIKLGFVLDMWKRFIDKNKEKRVGILLNKLSSRKESRNPFSTDSENYISTCTENYSPCVGTPISQAHFYVDYRIPDDPRKSQNKSKKYLFADKETDDILDEIDLKESRHIPYVTQGQSFDDEISLGGFSRVTLDYSERLHNSASSNFEGESLCYSPASREENSSSNEHSSENTAGP [K424R;K432R;K453R] | increasing interaction |

Reference: IntAct's records for PubMed 16990133
